Experimental data: IntAct's records for PubMed 12502741

Target: rb_human RB1 (UniProt P06400)
Sequence (P06400 whole entry): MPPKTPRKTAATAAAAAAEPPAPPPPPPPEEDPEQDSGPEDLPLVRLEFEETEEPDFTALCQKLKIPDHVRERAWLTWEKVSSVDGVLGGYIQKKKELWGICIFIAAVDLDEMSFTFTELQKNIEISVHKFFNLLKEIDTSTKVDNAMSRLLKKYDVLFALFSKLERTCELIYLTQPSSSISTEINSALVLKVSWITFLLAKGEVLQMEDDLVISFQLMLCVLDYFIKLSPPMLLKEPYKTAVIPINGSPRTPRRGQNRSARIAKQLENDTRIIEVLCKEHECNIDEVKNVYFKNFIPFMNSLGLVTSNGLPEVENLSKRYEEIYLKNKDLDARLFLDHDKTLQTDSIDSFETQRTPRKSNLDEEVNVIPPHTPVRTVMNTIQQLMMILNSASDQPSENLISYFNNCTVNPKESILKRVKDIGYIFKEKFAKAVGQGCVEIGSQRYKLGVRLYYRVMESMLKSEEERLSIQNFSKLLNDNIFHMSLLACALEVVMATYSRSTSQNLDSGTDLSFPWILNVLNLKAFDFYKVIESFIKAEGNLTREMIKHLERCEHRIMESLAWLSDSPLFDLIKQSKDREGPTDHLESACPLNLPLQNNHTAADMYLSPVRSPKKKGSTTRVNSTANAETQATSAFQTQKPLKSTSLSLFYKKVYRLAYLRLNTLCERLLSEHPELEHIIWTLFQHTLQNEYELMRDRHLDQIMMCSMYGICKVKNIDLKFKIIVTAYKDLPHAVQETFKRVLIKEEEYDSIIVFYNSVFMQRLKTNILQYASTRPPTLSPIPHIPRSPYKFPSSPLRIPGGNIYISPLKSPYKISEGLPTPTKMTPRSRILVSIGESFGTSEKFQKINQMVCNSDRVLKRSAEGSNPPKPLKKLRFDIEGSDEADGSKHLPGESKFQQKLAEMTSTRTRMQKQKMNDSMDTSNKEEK

Transcription factor E2F2 (Homo sapiens), Q14209 E420A, sequence (Q14209 whole entry E420A): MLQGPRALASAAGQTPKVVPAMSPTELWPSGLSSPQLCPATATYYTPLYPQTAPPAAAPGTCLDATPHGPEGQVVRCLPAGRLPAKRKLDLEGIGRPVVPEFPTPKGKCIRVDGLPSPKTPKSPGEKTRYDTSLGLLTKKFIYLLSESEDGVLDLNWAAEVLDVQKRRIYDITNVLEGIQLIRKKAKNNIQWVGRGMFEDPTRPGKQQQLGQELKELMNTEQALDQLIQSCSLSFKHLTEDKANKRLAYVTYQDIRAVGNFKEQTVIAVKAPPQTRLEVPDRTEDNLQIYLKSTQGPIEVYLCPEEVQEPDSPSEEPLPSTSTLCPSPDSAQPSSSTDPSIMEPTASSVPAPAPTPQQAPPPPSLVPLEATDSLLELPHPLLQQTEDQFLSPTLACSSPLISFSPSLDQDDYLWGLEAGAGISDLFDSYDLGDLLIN
Transcription factor E2F2 (Homo sapiens), Q14209 G421S, sequence (Q14209 whole entry G421S): as the sequence (Q14209 whole entry E420A) above, with A420E, G421S counted along it

| Substance | effect of a mutation on the interaction |
| --- | --- |
| Transcription factor E2F2 (Homo sapiens), Q14209 E420A | decreasing interaction strength |
| Transcription factor E2F2 (Homo sapiens), Q14209 G421S | decreasing interaction strength |
